What was measured:
Experiment in all cases: EMSA
PF0547 = molecular target: T1, PF0547 (Pyrococcus furiosus, UniProt Q8U3C3 1-448)
T1 sequence: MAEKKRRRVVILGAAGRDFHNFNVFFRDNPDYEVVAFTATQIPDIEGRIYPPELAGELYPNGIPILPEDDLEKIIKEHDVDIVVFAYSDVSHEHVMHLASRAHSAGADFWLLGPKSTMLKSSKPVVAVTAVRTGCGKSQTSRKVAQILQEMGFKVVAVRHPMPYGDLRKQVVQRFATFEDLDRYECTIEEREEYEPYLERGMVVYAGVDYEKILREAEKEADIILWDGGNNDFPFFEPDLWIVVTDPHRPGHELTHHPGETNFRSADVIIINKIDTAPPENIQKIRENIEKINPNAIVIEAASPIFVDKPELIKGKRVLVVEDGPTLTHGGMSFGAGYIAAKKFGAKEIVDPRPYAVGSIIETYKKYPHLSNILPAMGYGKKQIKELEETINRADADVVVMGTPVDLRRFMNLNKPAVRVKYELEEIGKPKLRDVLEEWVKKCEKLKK

PF1488 = molecular target: T2, PF1488 (Pyrococcus furiosus, UniProt Q8U0U4 1-222)
T2 sequence: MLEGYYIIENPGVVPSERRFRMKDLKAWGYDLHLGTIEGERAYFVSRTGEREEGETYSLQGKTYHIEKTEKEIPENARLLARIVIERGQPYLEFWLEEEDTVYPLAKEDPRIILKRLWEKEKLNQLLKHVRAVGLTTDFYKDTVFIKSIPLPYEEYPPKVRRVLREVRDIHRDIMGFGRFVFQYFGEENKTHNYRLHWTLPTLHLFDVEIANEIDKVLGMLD

PF1142 = molecular target: T3, PF1142 (Pyrococcus furiosus, UniProt Q8U1R3 1-280)
T3 sequence: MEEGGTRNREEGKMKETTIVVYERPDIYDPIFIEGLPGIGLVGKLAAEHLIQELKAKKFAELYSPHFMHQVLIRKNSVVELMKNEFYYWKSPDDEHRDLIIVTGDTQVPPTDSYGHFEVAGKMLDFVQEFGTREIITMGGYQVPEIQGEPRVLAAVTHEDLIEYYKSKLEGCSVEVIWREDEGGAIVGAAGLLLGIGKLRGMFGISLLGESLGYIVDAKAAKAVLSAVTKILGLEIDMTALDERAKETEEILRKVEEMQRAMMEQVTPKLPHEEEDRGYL

PF1913 = molecular target: T4, PF1913 (Pyrococcus furiosus, UniProt Q8TZS1 1-157)
T4 sequence: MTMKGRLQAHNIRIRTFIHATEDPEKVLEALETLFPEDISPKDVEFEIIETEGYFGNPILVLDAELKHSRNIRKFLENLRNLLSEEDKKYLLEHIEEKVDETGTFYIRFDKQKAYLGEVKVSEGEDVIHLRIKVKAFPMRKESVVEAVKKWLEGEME

Measured: binding result

GAAACAAGGAGAAAUGGUUCGUGUCCU (structured_RNA) [MPOR-27]
no binding: all assays above
